The results in this text go back to patent US20160271248A1, “CXCR4 UP- AND DOWN-REGULATION FOR TREATMENT OF DISEASES OR DISORDERS” (priority 2013, published 2016).

The subject of the test is neuronal FHC. Put plainly: gp120-mediated upregulation of neuronal FHC in bilaminar co-cultures with neutralizing antibodies or IL-1ra. Type of test: cell-based, rat. The following applies: IL-1β antibody 50 μg/mL, IL-1ra 1 μg/mL. The protocol: FIG. 13, comprising FIGS. 13A-13C, is a set of bar graphs and images illustrating that the presence of an IL-1β neutralizing antibody or IL-1 receptor antagonist abrogated gp120-mediated increases in FHC. Rat neurons cultured with a feeder layer of glia (8 DIV) were treated with either gp120IIIB (200 pM) or gp120BaL (200 pM) in the presence or absence of TNF-α antibody (40 μg/mL), IL-1β antibody (50 μg/mL) or IL-1ra (1 μg/mL). The presence of a TNF-α neutralizing antibody had no effect on the ability of gp120 to upregulate neuronal FHC. Neutralization or antagonism of IL-1β mitigated increases in neuronal FHC caused by gp120 in bilaminar cultures.
Rat cortical neurons were cultured in serum-free media in the presence of a glial feeder layer (Shimizu, et al., 2011, J. Vis. Exp. 57). This culture system largely preserves the in vivo environment, due to the presence of glia; however, it still enables direct investigation of neurons that can be separated by the glia before experiments. Selected studies were also performed in neurons grown in the absence of glia for the entire culture period, as indicated (Sengupta, et al., 2009, J. Neurosci. 29(8):2534-44). All experiments were conducted between 8-13 days in vitro (DIV).
Total protein extracts were obtained using standard protocols. […]

B1: IL-1ra: IL-1 receptor antagonist, an endogenous inhibitor of IL-1 signaling (protein, UniProt P25086 27-178, looked up)
Interleukin-1 receptor …: HPAGKRPCKMQAFRIWDTNQKTFYLRNNQLIAGYLQGPNTKLEEKIDMVPIDFRNVFLGIHGGKLCLSCVKSGDDTKLQLEEVNITDLNKNKEEDKRFTFIRSETGPTTSFESLACPGWFLCTTLEADHPVSLTNTPKEPCTVTKFYFQEDQ
With B1, the “effect on gp120-induced upregulation of neuronal FHC” value (gp120IIIB or gp120BaL 200 pM, TNF-α antibody 40 μg/mL) is given as “completely blocked”. In addition, the “FHC protein levels, treatment alone” value (without gp120) is listed as “no significant effect on FHC protein levels”.
